Measured values taken from the DeepSol protein solubility set.

Assay: soluble on expression in E. coli; label from the status in PepcDB or PDB records

Sequence	soluble on expression in E. coli
STNPKPQRKTKRNTNRRPQDVKFPGGGQIVGGVYLLPRRGPRLG	soluble
MKKEPKGAKNRIVIAKDEKNVLTCTSEGFEYTPDIVKNVYGKSSRPALEDWFLTELDFFRRYYPGYEVFTLGSSCVFGEKFVNYLTICEFDIDSTYAFDCLKKALRESDQAIRRKLSAMWKWDIAARKDWSIVFMVGHMDFAYFLQHRKEFQEDAHKRFMSTFTTAETKITSRDYKVMHDGAILPFDETALSPEDRFIFENYQKIKFETTPL	soluble
MGSDKIHHHHHHMKAVVQQWYTHPAVRAALTDLADYRPTLATAIEIQQVPAPTFAERPRSLLVSQRMQALGLHDVEVDDLGNVYGRRPGSTARPGLLISAHLDTVFPADTDLSIRYEGERVYGPGIGDNSAGVAGLLRLAEMYQRFDLPNTSDIWFVANVGEEGLGDLRGMRRVVERLRTRLSTVVVIEGCDFGSLHHQAIGVRRFRIEATGPGGHSWGNFGTPSAIHVLVRLAARLTELQVPSSPRTTFNIGTISGGTSVNTIAQHANMLLDLRSVSSAALTDLVNEVYRLVEEVALEYPDVHIQLTKVGDRPSGAIPREHPLVQAAVAAYQMVGAQISFQQSSTDANIPLSLGMPAVCVGLTDGGNAHRTDEYILPFNLSRGMQALLLLSLAANTLETI	not soluble
MGSDKIHHHHHHLNTTLSEYSIENLYGLYNHSLKFNDGESIAILHGPNGVGKTALLRSITYLFNSDFSSLSKIPFSRLFAKLSDNTEIIVTRKGVTKEQLLKHSQELHKISIEIKSKDKTTTSFSLNEAQLRPELLPPWIVLSDDGSYIDERNGMLFPEEFLHQSLFGKNKQKEIRNRETATQILEKIKVHFVETNRLYRSNSDTTWKRKKEKEMVASVDECAKHLVVLISTALKDYGKKSQELDQSFPHRFISEPIAQMSLDKLKTRLNELASQLKKLRKIGLLDAEGIQPFDPESLDKVEKSKLEIMNLYVRDSEQKLAVFDNLSKRIQVLLDGLNSKFKNKNIQLNKERGLIARGPNDFDLSLSDLSSGEQHEIVLLYELLFKVAPNTLVLIDEPELSLHMTWQKSFLPELLSISREIGFSSILATHSPFIVGDRYDLLISLDTKNNNDSME	not soluble
MAGSDPAAPAAPAAAAPDTVKILIAGGFGVGKTTMVGSVSEIAPLRTEEPLTAAGLDVDDLDGIAEKDATTVALDFGRITIGSELVLYLFGTPGQQRFWFMWNDLAIGALGAVVLIDVRRPESSFAAVDFFERRGIPFVIGVNGFHGLHPYTPEEIREALALPERAQVLLCDARERESCRDVLIALIDQLIAARLEHHHHHH	not soluble
MSYSIDNPGGGDCGFYALAIGLISIIQNEYKLHGKSKTYDRWKQVENIYGVRLQDILNIDLTKLHYSPYTYKSELLFLLQMSLRNIAVIVNKEDLVKRIIEEGRSKDQTKIEGSNAYCKFMELVQLYLYRRGSLERISQFNELALSPEIVQTARDIARMLRPILRNQPFHQAQKIENAFVKEVLLNDVLSGNTINSNSIILKSLEKIKEQGRWATHDDLKEIAELLKINLNVVGQPNGKPIPEYPTVTLKNLSNTHWITQVESLQGPRQYSTPSKRAFGYETLSDRAVPLKEEQTLDRAFRTETQSERTRRYNQHFETLFDTLSPYGFFPHVQSKRNVHVFGKAQTGLESDEALAAQLQEAELRRILY	not soluble
MDLICMYVFKGEESFGESIDVYGDYLIVKVGTEFLAVPKKSIKSVEDGRIVIGEFDEEEARELGRKWLEEKSKPVTLEELKSYGFGEEGE	not soluble
GPLGSPRYELGEELRDKIKQEPSFSNMVSAKKFYNKAIKDFTAPKEGAEVVSVKTHIMRPIDFMLMGLREEFNLYSEDGAHLSAPGTIRLLREKNLLPEEQIARIESVYNQAMSKRFELHAEHKKEHDEMPYSDAKAMLDEVAKIRELGVQRVTRIENLENAKKLWDNANSMLEKGNISGYLKAANELHKFMKEKNLKEDDLRPELSDKTISPKGYAILQSLWGAASDYSRAAATLTESTVEPGLVSAVNKMSAFFMDCKLSPNERATPDPDFKVGKSKILVGIMQFIKDVADPTSKIWMHNTKALMNHKIAAIQKLERSNNVNDETLESVLSSKGENLSEYLSYKYATKDEGREHRYTASTE	soluble
MLKDQDRIFTNLYGLKDKSLKGVMARGHWDGTKQIIEKGRDWIINEMKASGLRGRGGAGFPTGLKWSFMPKENDGRPHYLVVNADESEPGTCKDREILRNDPHTLIEGCVIAGFAMGAHTAYIYVRGEYMREREALQAAIDECYDAGLLGKNNKNGWDYDIYVHHGAGAYICGEETALLESLEGKKGQPRLKPPFPANMGLYGCPTTVNNVESIAVAPTILRRGASWFSSIGRPNNVGTKLFMVSGHVERPCTFEDALGLSFRELIEHHCGGIRGGWDNLLGVIPGGASCPIVRGEDMKDAIMDFDGMREVKSSFGTGGMIVMDKSTDVIKAIARIAAFFKHESCGQCTPCREGTGWMWRVLERMVKGNAQKREIDMLFEVTKQIEGHTICALGDAAAWPVQALIRNFRPEIEKRIDQYTYRAMDDGAVLEAAEAAALEHHHHHH	not soluble
GSGSGSDIEAYLERIGYKKSRNKLDLETLTDILQHQIRAVPFENLNIHCGDAMDLGLEAIFDQVVRRNRGGWCLQVNHLLYWALTTIGFETTMLGGYVYSTPAKKYSTGMIHLLLQVTIDGRNYIVDAGSGRSYQMWQPLELISGKDQPQVPCVFRLTEENGFWYLDQIRREQYIPNEEFLHSDLLEDSKYRKIYSFTLKPRTIEDFESMNTYLQTSPSSVFTSKSFCSLQTPDGVHCLVGFTLTHRRFNYKDNTDLIEFKTLSEEEIEKVLKNIFNISLQRKLVPKHGDRFFTI	soluble
MGSDKIHHHHHHMNAHTNSQANTNVTNVVFRTHTQPDEAASKKAGRPIFTDIEVCDITFPANRQTRATFPAHDAEPNATRESMANGGGVMTYAQVYNAQYLAYKSGVAQPMGGTPLSEAPFLTESKRRELKALNVHTVEALASLDGMPLKQLGMGGRELKNQAVAYIDNAAGSADVTNLAAQVAILTQQLAEERRMREEFTNAALARRERIKAGEEIEDDEQPEDDEPAELEPEPDDFEPVLPPTFAEIDAMDDEALKVYIAKETGSRPRGNPNRDTLVAAAKELAS	not soluble
MGSDKIHHHHHHMAIGTLEATTLIRGRAMTTVLPSPELIASFVDIVGPGNALTAPADTAPYLVESRGLYRGTTPLVLRPGSVEEVSLVMRLASQTRTAVVPQGGNTGHVAGQIPREGKADVVLSLERLNRIRDIDPVGNVIVADAGCILADIQKAADDVDRLFPLSLGSEGSARIGGNLSTNAGGTAVLAYGNMRQLCLGLEVVLPTGEIWDGLRRLRKDNTGYDLRDLFIGAEGTLGVITGAVLKLFPKPRGHQVAFAGLRSVEDALTLFDRATSVCGPALTGFELMPRLGIEFTTRHIAGVRDPMETTHPWYALIDISTSDTAESAERMVQDLLEAVIADGLVENAVIAQNEAQRRALWHMRESMSPAQKPEGGSIKHDVSVPVSSIPAFMTEADALVSKAIPGARICAFGHMGDGNIHYNISQPVGADKQSFLDRWREINAIVHAVVLKHDGSISAEHGIGQLKRDELAAIRSPIEIELMRRIKHAFDPAGIMNPDKVLREDRGE	not soluble
LDDEDVDTVVDHCGDILEHFERLEEVPEVDAEPELVNVMRADEIADSLDQDDALANAPETEDGRF	soluble
MNPESRVIRKVLALQNDEKIFSGERRVLIAFSGGVDSVVLTDVLLKLKNYFSLKEVALAHFNHMLRESAERDEEFCKEFAKERNMKIFVGKEDVRAFAKENRMSLEEAGRFLRYKFLKEILESEGFDCIATAHHLNDLLETSLLFFTRGTGLDGLIGFLPKEEVIRRPLYYVKRSEIEEYAKFKGLRWVEDETNYEVSIPRNRIRHRVIPELKRINENLEDTFLKMVKVLRAEREFLEEEAQKLYKEVKKGNCLDVKKLKEKPLALQRRVIRKFIGEKDYEKVELVRSLLEKGGEVNLGKGKVLKRKERWLCFSPEV	soluble
MNVLFTSVPQEDVPFYQEALKDLSLKIYTTDVSKVPENELKKAELISVFVYDKLTEELLSKMPRLKLIHTRSVGFDHIDLDYCKKKGILVTHIPAYSPESVAEHTFAMILTLVKRLKRIEDRVKKLNFSQDSEILARELNRLTLGVIGTGRIGSRVAMYGLAFGMKVLCYDVVKREDLKEKGCVYTSLDELLKESDVISLHVPYTKETHHMINEERISLMKDGVYLINTARGKVVDTDALYRAYQRGKFSGLGLDVFEDEEILILKKYTEGKATDKNLKILELACKDNVIITPHIAYYTDKSLERIREETVKVVKAFVKGDLEQIKGNFVVGPS	soluble
MGSDKIHHHHHHMTNIILICVDQMRADTIRILGNPSIITPNLDALSLNSVVFSNHFSAGSPCSPARTSLLTGQYPATHGSITKNHRLKSTTNLALEIKKIGLSSTLFGFTDTVIPPYIQEKEGIMPGFDVQCYMNLHNIGLSGWAKELQKKGYHVLPNIMDIYRAEKAPYNYHDSDTAFLTDQVINYVASQGQEFGFIHLSYFRPHPPFIAPAPYSEYYPEVNCQKPEVDLETFLSMHPFHECLFHQLYKNTFNNLSYKQIESILTERFSRDKRAYYGLITELDYHLGRLITFLKDKGVYDETLLIFTSDHGELLGDKWLYEKGGYFDQSFHVPLLIKPPKALRSKQEGKIVDSFTSSIDLMPTILDIINAPIPESVEGLSLAELLSDGKNDSTRKDIIYEHYTTLPTKQLNRTLTIKDESFKYVYCSQFEHLLFDLKSDPDELKNLATESKHLNTVAYYQDRLRAEKLL	not soluble
VAEQKVKRNVELAGVDVILVHRMLKNEVPVSEYLFMTDVVAQCLDESVRKLATPLTHDFEGIGETSTHYIDLATSDMPPAVPDHSFFGLLWADVKFEWHALPYLLGFKKACAGFRSLGRGATEEPAEMG	not soluble
GEPDAQNWQHTVGKDVVAGLTQREIDRQEVINELFVTEASHLRTLRVLDLIFYQRMKKENLMPREELARLFPNLPELIEIHNSWCEAMKKLREEGPIIKEISDLMLARFDGPAREELQQVAAQFCSYQSIALELIKTKQRKESRFQLFMQEAESHPQCRRLQLRDLIISEMQRLTKYPLLLESIIKHTEGGTSEHEKLCRARDQCREILKYVNEAVKQTENRHRLEGYQKRLDATALERASNPLAAEFKSLDLTTRKMIHEGPLTWRISKDKTLDLHVLLLEDLLVLLQKQDEKLLLKCHSKTAVGSSDSKQTFSPVLKLNAVLIRSVATDKRAFFIICTSKLGPPQIYELVALTSSDKNTWMELLEEAVRNATRHPHHHHHH	soluble
MSLKLVAIAGSIGEQSYNRMLLQYIAKHFENLVDIELLNIDDVPVFNEDEDLSDNIKIQKIYQKIYGADGVILATPEHNHTVTAAIKNVIEWLSFKLHPFDGKPVWIVGASYFNQGSSRAQLHLKQILEAPGVNAIVMPGNEFLLRNAKEAFDAEGQLKDAGTVQFLEMVIQKFIKFVKVIDMLDAPDPKSYQDEDLESKGKVNTTIEGVDMHDEHWVEKAAQKVHAVDGSTYVKLDRGILTVDQLNYFLKTMPVELTYADDNNQFIYYNKNQPADKMLAPRNPGQAGDPLADVHPGRAVDRVKQVIHALRTGETDLVSMPVPGNGPDRHVMHYYKAMRDENGRYRGVNEWVTDIMPIIKYYLASTGEGHHHHHH	soluble
MGSDKIHHHHHHMTYREYKEPATRAGGIIELPHRTDANRFLASLGVAERATLASHLQLVHVKSGQVLCEPGMALEHVYLPVTTVISIQYASSDGMTLEIAEIGNEGIVSPQLVGTDGASPCRVITCRDGFSYRLGARVLSNLLEESAQTRQAIFRCTHLLMAQAKQISFCSRHHVLKNQLCRWFLLAYDRSRSVEIQVTHSMLAQMLGVRRETVTDAAGDIQKMGLIRQYRSSIILVDLPGLDAQSCGCHAIIREEMKKIQAAPTSASGTLTELRS	not soluble
MNNDHLDPINSLNVPELADTTFAMDFLIRAKEGVRNTAVALTETASPDVRALLRKQLMQGIAMHQEITELMISKKWFHPYELSEQYKLDQLSAKNTIMVGNMNLFPDETNRKGMFDRTPDEHMAGDPLEHHHHHH	not soluble
